The values below come from the nanobody polyreactivity screen of Harvey et al. (2022).

A short description of this data set: yeast display, Sf9 membrane polyspecificity reagent, FACS + sequencing; frameworks hold sequencing errors. The method, boiled down:
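Using colony PCR, genes from sorted yeast display clones were amplified, then sequenced on MiSeq at 2 × 250 and filtered by CDR length. The clones had been stained with 10% biotinylated, detergent-solubilized Sf9 membrane reagent for 1 hour at 4 °C and sorted by FACS into low and high (top ~1%) gates on anti-HA and streptavidin fluorescence. Polyreactivity labels come from the gate of origin.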
On to “QVQLVESGGGLVQAGGSLRLSCAASGRTFALYAMAWYRQAPGKERELVASISWRGGSTYYADSVKGRFTISRDNAKNTVYLQMNSLKPEDTAVYYCAADTWSYGPLNYRLEYWGQGTQVTVSS”, for which the “polyreactivity (PSR sort gate)” value is reported as “low polyreactivity”.

Turning to “QVQLVESGGGLVQAGGSLRLSCAASGRTFALYAMGSYRQAPGKERELVAGITFRGGSTYYADSVKGRFTISRDNAKNTVYLQMNSLKPEDTAVYYCAAVPRVNLSRYVYFWYDYWGQGTQVTVSS”, the “polyreactivity (PSR sort gate)” value is reported as “high polyreactivity”.

As for “QVQLVESGGGLVQAGGSLRLSCAASGRTFANYAMGWYRQAPGKERELVAAISVSTVSTYYADSVKGRFTISRDNAKNTVYLQMNSLKPEDTAVYYCAATSPYKYWYRYNYWGQGTQVTVSS”, the “polyreactivity (PSR sort gate)” value is on record as “high polyreactivity”.

Take “QVQLVESGGGLVQAGGSLRLSCAASGRTFAPYAMAWYRQAPGKERELVAVISSSGGRTYYADSVKGRFTISRDNAKNTVYLQMNSLKPEDTAVYYCAADVYGYRFFKTGRYDYWGQGSQVTVSS”: the “polyreactivity (PSR sort gate)” value is on record as “high polyreactivity”.

Turning to “QVQLVESGGGLVQAGGSLRLSCAASGRTFAQYVMGWYRQAPGTERELVAAISGIGGSTYYADSVKGRFTISRDNAKNTVYLQMNSLNPEDTAVYYCAVELYWYPGYDYWGQGTQVTVSS”, the “polyreactivity (PSR sort gate)” value was “low polyreactivity”.

On to “QVQLVESGGGLVQAGGSLRLSCAASGRTFARNAMGRYRQAPVKERELVAVISKGGSRTYYADSVKGRFTISRDNEKNTVYLQMNSLKPEDTAVYYCAARHYVTRDESYDYWGQVTQVTVSS”, for which the “polyreactivity (PSR sort gate)” value is recorded as “high polyreactivity”.

In the case of “QVQLVESGGGLVQAGGSLRLSCAASGRTFARNAMGWYRQAPGKERELVAAITSGGSTNYADSVKGRFTISRDNAKNTVYLQMNSLIPEDTAVYYCAADGAQYYYGRYYYWGQGTQVTVSS”, the “polyreactivity (PSR sort gate)” value is “high polyreactivity”.

Consider “QVQLVESGGGLVQAGGSLRLSCAASGRTFARYAMGWYRQAPGKERELVAAISWSGGSTYYADSVKGRFTISRDNAKNTVYLQMNSLKPEDTAVYYCAAGYGARSAIFDVYGTNEGDYWGQGTQVTVSS”, for which the “polyreactivity (PSR sort gate)” value was “high polyreactivity”.

“QVQLVESGGGLVQAGGSLRLSCAASGRTFARYAMGWYRQAPWKERELVAAISRGGDSTYYADSVKGRFTISRDNAKNNVYLQMNSLKPEDTADYYCNAYVILALGYGGYDYWGQGTQVTVSS”: the “polyreactivity (PSR sort gate)” value was “high polyreactivity”.

For the sequence “QVQLVESGGGLVQAGGSLRLSCAASGRTFASNAMGWYRQAPGKERELVAAISSAGGTNYADSVKGRFTISRDNAKNTVYLQMNSLKPEDTAVYYCAAASPYYSYHRYIYYYWGQGTQVTVSS”, the “polyreactivity (PSR sort gate)” value is reported as “high polyreactivity”.

For “QVQLVESGGGLVQAGGSLRLSCAASGRTFASNVMGWYRQAPGKERELVAAISRRGGSTYYADSVKGRFTISRDNAKNTVYLQMNSLKPEDTAVYYCNAVLYHLTYDYWGQGTQVTVSS”, the “polyreactivity (PSR sort gate)” value was “high polyreactivity”.

For the sequence “QVQLVESGGGLVQAGGSLRLSCAASGRTFASYAMGWYRQAPGKERELVAVITRGGRTYYADSVKGRFTISRDNAKNTVYLQMNSLKPEDTAVYYCNAAYYSSSYLEDSWGQGTQVTVSS”, the “polyreactivity (PSR sort gate)” value is recorded as “high polyreactivity”.

On to “QVQLVESGGGLVQAGGSLRLSCAASGRTFASYMGWYRQAPWKERELVAAINWSGGTTYYADSVKGRFTISRDNAKNSVYLQMNSLKPEDTAVYYCNKLGYQSRGDYWGQGTQVTVSS”, for which the “polyreactivity (PSR sort gate)” value was “high polyreactivity”.

For the sequence “QVQLVESGGGLVQAGGSLRLSCAASGRTFASYVMGWYRQAPGKERELVASITRTGSTYYADSVKGRFTISRDNAKNTVYLQMNSLKPEDTAVYYCNAATFYRRSSTRGFNYWGQGTQVTVSS”, the “polyreactivity (PSR sort gate)” value is “high polyreactivity”.

With “QVQLVESGGGLVQAGGSLRLSCAASGRTFATYSMGRYIQAPGKERELVAAISRSGSTTYYADSVKGRFTISRDNAKNTVYLQMNSLKPEDTAVYYCNAKFRKADYDYWGQGTQVTVSS”, the “polyreactivity (PSR sort gate)” value was “high polyreactivity”.

In the case of “QVQLVESGGGLVQAGGSLRLSCAASGRTFAYNAMGWYRQAPGKERELVAAISSSGGSTYYADSVKGRFTISRDNAKNTVYLQMNSLKPEDTAGYYCATQGFSWAHGSDYWGQGTQVTVSS”, the “polyreactivity (PSR sort gate)” value was “low polyreactivity”.

As to “QVQLVESGGGLVQAGGSLRLSCAASGRTFAYNAMGWYRQAPGKERELVAANTDSDGNTNYADSVKRRFTISRDNAKNTVYVLLNSLIPEDTAVDYCAADYIILVHVTRGFGYEYWGQGTQVTVSS”, the “polyreactivity (PSR sort gate)” value is recorded as “low polyreactivity”.

As to “QVQLVESGGGLVQAGGSLRLSCAASGRTFAYYAMGWYKQAPGKERELVAAISWSGGSTYYADSVKGRFTISRDNAKYTVYLQMNSLKPEDTAVYYCNTLGGTEYGYWGQGTQVTVSS”, the “polyreactivity (PSR sort gate)” value is recorded as “high polyreactivity”.

With “QVQLVESGGGLVQAGGSLRLSCAASGRTFAYYAMGWYRQAPGKERELVAAISTSGTRTYYADSVKGRFTISRDNAKNTVYLQMNSLKPEDTAVYYCAARYRYQYEFDYWGQGTQVSVSS”, the “polyreactivity (PSR sort gate)” value was “high polyreactivity”.

Regarding “QVQLVESGGGLVQAGGSLRLSCAASGRTFAYYAMGWYRQAPGKERELVATITWNGGSTYYADSVKGRFTISRDNAKNTVYLQMNSLKPEDTAVYYCAVRLWFDYNYWGQGTQVTVSS”, the “polyreactivity (PSR sort gate)” value is given as “low polyreactivity”.

Take “QVQLVESGGGLVQAGGSLRLSCAASGRTFAYYAMGWYRQAPGTERELVATINSAGCTYYADSVKGRFTISRDNAKNTVYLQMNSLKPEDTAVYYCNAAYKSQVRYRRYIYWGQGTQVTVSS”: the “polyreactivity (PSR sort gate)” value is reported as “high polyreactivity”.

As to “QVQLVESGGGLVQAGGSLRLSCAASGRTFAYYTMGWYRQAPGKERELVAAITSSGGSTYYADSVKGRFTISRDNAKNTVYLQMNSLKPEDTAVYYCNAYGLRWASRLGYDYWGQGTQVTVSS”, the “polyreactivity (PSR sort gate)” value was “high polyreactivity”.

“QVQLVESGGGLVQAGGSLRLSCAASGRTFAYYVMGWYIQAPGTERELVAAISWSAGCTYYADSVKGRFTISRDNAKNTVYLQMNSLIPEDTAVDYCAADYRFRYEYWGQGTQVTVSS”: the “polyreactivity (PSR sort gate)” value is recorded as “low polyreactivity”.

“QVQLVESGGGLVQAGGSLRLSCAASGRTFCVNAMGWSRQAPGKERELVAAITGGGSTYYADSVKGRFTISRDNAKNTVYLQMNSLKPEDTAVYYCNADRRRRSGGFAGWHFQRNDYWGQGTQVTVSS”: the “polyreactivity (PSR sort gate)” value is on record as “low polyreactivity”.

Turning to “QVQLVESGGGLVQAGGSLRLSCAASGRTFCYYTMVWYRQAPGKEREMVASISRVTSTYYADSVKGRFTISRDNAKNTVDLQMNSVKPEDTAVYYCAADRTRYYVGYRWTGNKMVYWGQGTQVTLSS”, the “polyreactivity (PSR sort gate)” value is recorded as “low polyreactivity”.

Regarding “QVQLVESGGGLVQAGGSLRLSCAASGRTFDAYAMGWYRQAPGKERELVAAIRRGSSTNYADSVKGRFTISRDNAKNTVYLQMNSLKPEDTAVYYCAARRQWLGIRTGYNYWGQGTQVTVSS”, the “polyreactivity (PSR sort gate)” value is given as “high polyreactivity”.

In the case of “QVQLVESGGGLVQAGGSLRLSCAASGRTFDDNAMGWYRQAPGKERELVAAISSTGSTNYADSVKGRFTISRDNAKNTVYLQMNSLKPEDTAVYYCNTDRGHERAYYYWGQGTQVTVSS”, the “polyreactivity (PSR sort gate)” value was “low polyreactivity”.

With “QVQLVESGGGLVQAGGSLRLSCAASGRTFDEYAMGWYRQAPGKERVLVAAIDSGGSTTYADSVKGRFTISRDNAKNTVYLQINSLKPEDTAVYYCAASYPYWYITPRKFEYWGQGTQVTVSS”, the “polyreactivity (PSR sort gate)” value was “low polyreactivity”.

Take “QVQLVESGGGLVQAGGSLRLSCAASGRTFDEYAMVWYRQAPGKERELVAAINSSGNTYYADSVKGRFTISRDNAKNTVYLQMNSLKPEDTAVYYCAVRSYNTISDDMDYWGQGTQVTVSS”: the “polyreactivity (PSR sort gate)” value is “low polyreactivity”.

Regarding “QVQLVESGGGLVQAGGSLRLSCAASGRTFDGYAMGWYRQAPGKEREMVAAISRGGGNTRYADSVKGRFTISRDNAKNTVYLQMNSLKPEDTAVYYCNKLSFFPYITDEYWGQGTQVTVSS”, the “polyreactivity (PSR sort gate)” value was “high polyreactivity”.

“QVQLVESGGGLVQAGGSLRLSCAASGRTFDLNDMGWYRQAPGKEREFVADIDWSGGNTYYADSVKGRFIISRDNAKNTVYLQMNSLKPEDTAVYYCNARRKRSYDYWGQGTQVTVSS”: the “polyreactivity (PSR sort gate)” value is “low polyreactivity”.

Take “QVQLVESGGGLVQAGGSLRLSCAASGRTFDLNVMGWSRQAPGKERELVAASSFSGGSTYYADSVKGRFTLSRDNAKNTVYLQMNSLKPEDTAVYYCAADGYVRPPEMDYWGQGTQVTVSS”: the “polyreactivity (PSR sort gate)” value was “high polyreactivity”.

With “QVQLVESGGGLVQAGGSLRLSCAASGRTFDNYAMGWYRQAPGKERELVAAISSSGGRTYYADSVKGRFTISRDNAKNTVYLQMNSLKPEDTAVYYCAAVWPVYRTHPGMDYWGQGTQVTVSS”, the “polyreactivity (PSR sort gate)” value is recorded as “high polyreactivity”.

With “QVQLVESGGGLVQAGGSLRLSCAASGRTFDPNAMGWYRQAPGKERELVAAIRWTGTSTYYADSVKGRFTISRDNAKNTVYLQMNSLKPEDTAVDYCNARGSYRLRYDYWGQGTQVTVSS”, the “polyreactivity (PSR sort gate)” value is “high polyreactivity”.

As for “QVQLVESGGGLVQAGGSLRLSCAASGRTFDPYAMGWYRQAPGKERELVAAITSGDDTYYADSVKGRFTISRDNAKNTVYLQMNSLKPEDTAVYYCAADSFTPDYYSHDYWGQGTQVTVSS”, the “polyreactivity (PSR sort gate)” value is “low polyreactivity”.

Regarding “QVQLVESGGGLVQAGGSLRLSCAASGRTFDRNAMGWYRKAPGKERELVARITIDGSTNYADSVKGRFTISRDNAKNTVYLQMNSLKPEDTGVYYCAAYSASYGGYDYWGQGTQVTVSS”, the “polyreactivity (PSR sort gate)” value is recorded as “high polyreactivity”.

As to “QVQLVESGGGLVQAGGSLRLSCAASGRTFDRNTMGWYRQAPGKERELVAAISSSGGSTYYADSVKGRFTISRDNAKNTVYLQMNSLKPEDTAVYYCAVLSRQYFRYGYDYWGQGTQVTVSS”, the “polyreactivity (PSR sort gate)” value is recorded as “high polyreactivity”.

For “QVQLVESGGGLVQAGGSLRLSCAASGRTFDRYAMGWYRQAPGKEREFVAVISSSGVRTNYADSVKGRFTISRDNAKNTVYFQMNSLKPEDTAVYYCAAVFWFRSLSGYIYDYWGQGTQVTVST”, the “polyreactivity (PSR sort gate)” value is given as “low polyreactivity”.

Turning to “QVQLVESGGGLVQAGGSLRLSCAASGRTFDSYAMGWYRQAPGKERELVAAISRAGGTNYADSVKGRFTISRDNAKLTVYLQMNRLKPDDTEVYYCAVRQAVYGLRSDFYYWGQGSQVTVSS”, the “polyreactivity (PSR sort gate)” value is “high polyreactivity”.

“QVQLVESGGGLVQAGGSLRLSCAASGRTFDVYAMGWDRQAPGKERELVAASTSGGSTYYADSVKGRFTISRDNAKNTVYLQMNSLKPEDTAVYYCATDVDKSLYDYWGQGTQVTVSS”: the “polyreactivity (PSR sort gate)” value is listed as “low polyreactivity”.

“QVQLVESGGGLVQAGGSLRLSCAASGRTFDVYAMGWYRQAPGKERELVATISRSGGSTYYADSVKGRFTISRDNAKNTVYLQMNSLKPEDTAVYYCAARKRSPPYGYWGQGTQVTVSS”: the “polyreactivity (PSR sort gate)” value is on record as “high polyreactivity”.
